Experimental data from US20210347908A1 (ELPISCIENCE SUZHOU BIOPHARMA, published 2021).
Numbering of substitutions follows the chain as printed. Read-outs that look alike come from different tables or passages of the source. Values belong to the binder of their own block, whether it stands above or below them.

Key:
[1] = target: T1, Fc tagged human SIRPα v1 ECD recombinant protein (human, UniProt P78324 31-370); test: ELISA
T1 construct: range 1-370; cloned range M1-R370 includes the signal peptide; also called hSIRPα V1; not shown: human IgG Fc region (hFc) of the pCPC vector
T1 sequence (P78324 31-370 limits assumed): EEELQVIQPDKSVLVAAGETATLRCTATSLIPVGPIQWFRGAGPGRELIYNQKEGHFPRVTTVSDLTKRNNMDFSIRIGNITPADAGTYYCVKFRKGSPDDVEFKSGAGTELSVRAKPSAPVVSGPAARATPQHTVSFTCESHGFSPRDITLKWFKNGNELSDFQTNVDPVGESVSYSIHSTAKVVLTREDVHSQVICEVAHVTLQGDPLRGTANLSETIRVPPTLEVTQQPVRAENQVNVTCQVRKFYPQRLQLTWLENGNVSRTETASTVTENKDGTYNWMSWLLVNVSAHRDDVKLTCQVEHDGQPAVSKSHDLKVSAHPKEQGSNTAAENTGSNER
Protocol: (§1) Binding specificity of the purified hybridoma antibodies against SIRP family members was detected by ELISA assay using recombinant proteins of Fc tagged human SIRPα v1 ECD, human SIRPα v2 ECD, human SIRPβ ECD and human SIRPγ ECD. Briefly the antibodies were incubated with ELISA microplate coated antigens at 37° C. for 1 hour. After washing, horseradish peroxidase (HRP) labeled anti-mouse or anti-human IgG 2nd Ab (Sigma) was added and incubated at 37° C. for 1 hour. Then, 100 μl/well of TMB solution (Biotechnology) was added. After incubation for 15 minutes at room temperature, the reaction was stopped by the addition of 50 μl of 1N HCl. OD 450 nm was read and EC₅₀ was calculated. Other than 060 and HEFLB, all of the antibodies as tested can bind with both human SIRPα v1 and SIRPα v2. 060 and HEFLB can bind with human SIRPα v1 but not v2. Other than 055, all of the antibodies as tested can bind with human SIRPβ. In comparison with other known anti-SIRPα antibodies, only 022, 035 and 050 can bind with human SIRPγ weakly.

[2] = target: T2, Fc tagged human SIRPα v2 ECD recombinant protein (human); test: ELISA
T2 construct: range 1-369; cloned range M1-R369 includes the signal peptide; also called hSIRPα V2
Protocol: as §1

[3] = target: T3, full length human SIRPα v1 stably expressed on CHOK1 cells (human, UniProt P78324 31-504); test: FACS on CHOK1 cells
T3 construct: whole, on cells; also called CHOK1-human SIRPα v1-1B4 cells; CHOK1-human SIRPα v1
Protocol: (§2) Species cross reactivity of the purified hybridoma antibodies against human, cyno and mouse SIRPα was determined by FACS assay using CHOK1-human SIRPα v1-1B4 cells, CHOK1-cyno SIRPα-2A2 cells, and CHOK1-C57BL/6 mouse SIRPα-2.22 cells, which stably expressing SIRPα protein. Briefly the antibodies were incubated with 2×10⁵ target cells at 4° C. for 1 hour. After washing, fluorescence labeled anti-mouse or anti-human IgG 2nd antibody (Life Technologies) was added and incubated at 4° C. for 1 hour. Geometric median fluorescence intensity was detected and EC₅₀ was calculated. In particular, it is noted, in contrast to the other antibodies tested in the same experiment, 060 cannot bind with cyno SIRPα and 035 has cross reactivity against C57BL/6 mouse SIRPα.

[4] = target: T4, full length cyno SIRPα stably expressed on CHOK1 cells (cynomolgus monkey, UniProt A0A2K5VYQ9 31-507); test: FACS on CHOK1 cells
T4 construct: whole, on cells; also called CHOK1-cyno SIRPα-2A2 cells; CHOK1-cyno SIRPα
T4 sequence: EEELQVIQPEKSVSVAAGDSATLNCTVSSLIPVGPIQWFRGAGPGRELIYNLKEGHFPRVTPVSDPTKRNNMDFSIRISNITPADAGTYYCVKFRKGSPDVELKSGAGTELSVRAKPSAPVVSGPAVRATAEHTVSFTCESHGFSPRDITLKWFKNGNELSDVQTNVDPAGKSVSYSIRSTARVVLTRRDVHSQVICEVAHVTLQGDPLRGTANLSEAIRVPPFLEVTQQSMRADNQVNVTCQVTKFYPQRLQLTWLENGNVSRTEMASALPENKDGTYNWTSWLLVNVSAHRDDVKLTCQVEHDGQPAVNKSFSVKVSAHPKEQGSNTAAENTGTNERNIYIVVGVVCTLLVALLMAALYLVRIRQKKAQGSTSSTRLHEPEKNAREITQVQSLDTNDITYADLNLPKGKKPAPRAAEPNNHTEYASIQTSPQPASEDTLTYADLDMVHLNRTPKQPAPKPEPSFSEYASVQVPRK
Protocol: as §2

[5] = target: T5, full length C57BL/6 mouse SIRPα stably expressed on CHOK1 cells (mouse (C57BL/6), UniProt P97797 32-513); test: FACS on CHOK1 cells
T5 construct: whole, on cells; also called CHOK1-C57BL/6 mouse SIRPα-2.22 cells
T5 sequence (looked up): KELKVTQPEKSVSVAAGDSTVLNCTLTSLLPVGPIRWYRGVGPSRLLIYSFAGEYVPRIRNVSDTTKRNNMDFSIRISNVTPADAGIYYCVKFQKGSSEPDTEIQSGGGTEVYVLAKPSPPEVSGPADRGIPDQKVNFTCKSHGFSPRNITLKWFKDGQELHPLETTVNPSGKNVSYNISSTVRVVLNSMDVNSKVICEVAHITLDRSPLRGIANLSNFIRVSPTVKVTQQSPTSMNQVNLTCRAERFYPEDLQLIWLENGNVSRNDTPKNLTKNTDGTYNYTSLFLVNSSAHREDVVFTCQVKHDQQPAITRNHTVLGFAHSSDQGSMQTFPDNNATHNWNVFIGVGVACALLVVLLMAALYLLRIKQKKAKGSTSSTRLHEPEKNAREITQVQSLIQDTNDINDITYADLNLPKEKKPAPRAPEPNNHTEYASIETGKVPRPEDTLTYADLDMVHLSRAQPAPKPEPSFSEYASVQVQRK
Protocol: as §2

[6] = target: T6, biotin labeled soluble human SIRPα v1 ECD recombinant protein (human, UniProt P78324 31-373, biotin labeled); test: competitive ELISA; competitor 001
T6 construct: extracellular domain
T6 sequence (P78324 31-373): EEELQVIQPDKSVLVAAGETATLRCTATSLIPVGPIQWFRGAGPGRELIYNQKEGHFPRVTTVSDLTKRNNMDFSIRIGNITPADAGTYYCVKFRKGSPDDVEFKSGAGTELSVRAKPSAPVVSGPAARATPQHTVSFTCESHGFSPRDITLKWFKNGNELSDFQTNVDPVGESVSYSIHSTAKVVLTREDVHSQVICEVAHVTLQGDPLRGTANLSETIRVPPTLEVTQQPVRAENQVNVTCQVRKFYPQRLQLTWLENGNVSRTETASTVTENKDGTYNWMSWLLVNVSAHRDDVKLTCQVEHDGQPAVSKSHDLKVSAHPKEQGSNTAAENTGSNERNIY
Protocol: (§3) Competitive ELISA assay was used for epitope binning of 9 functional antibodies. Briefly excessive competitor antibody and biotin labeled soluble human SIRPα v1 ECD recombinant protein were co-incubated with ELISA microplate coated antibody. After washing, HRP-SA was added and incubated at 37° C. for 1 hour. Then, […] of TMB solution (Biotechnology) was added. After incubation for 15 minutes at room temperature, the reaction was stopped by the addition of […] of 1N HCl. OD 450 nm was read. Competition ratio was calculated. The antibodies that can compete each other for binding to SIRPα have the similar binding epitope.

[7] = target: T6, biotin labeled soluble human SIRPα v1 …; test: competitive ELISA; competitor 002
Protocol: as §3

[8] = target: T6, biotin labeled soluble human SIRPα v1 …; test: competitive ELISA; competitor 022
Protocol: as §3

[9] = target: T6, biotin labeled soluble human SIRPα v1 …; test: competitive ELISA; competitor 032
Protocol: as §3

[10] = target: T6, biotin labeled soluble human SIRPα v1 …; test: competitive ELISA; competitor 035
Protocol: as §3

[11] = target: T6, biotin labeled soluble human SIRPα v1 …; test: competitive ELISA; competitor 050
Protocol: as §3

[12] = target: T6, biotin labeled soluble human SIRPα v1 …; test: competitive ELISA; competitor 055
Protocol: as §3

[13] = target: T6, biotin labeled soluble human SIRPα v1 …; test: competitive ELISA; competitor 060
Protocol: as §3

[14] = target: T6, biotin labeled soluble human SIRPα v1 …; test: competitive ELISA; competitor 074
Protocol: as §3

[15] = target: T6, biotin labeled soluble human SIRPα v1 …; test: competitive ELISA; competitor HEFLB
Protocol: as §3

[16] = target: T6, biotin labeled soluble human SIRPα v1 …; test: competitive ELISA; competitor KWAR23
Protocol: as §3

[17] = target: T6, biotin labeled soluble human SIRPα v1 …; test: competitive ELISA; competitor 29-AM4-5
Protocol: as §3

[18] = target: T1, Fc tagged human SIRPα v1 ECD …; test: ELISA; remark: listed apart in the source
[19] = target: T2, Fc tagged human SIRPα v2 ECD …; test: ELISA; remark: listed apart in the source
[20] = target: T7, Fc tagged human SIRPβ ECD recombinant protein (human, UniProt O00241 30-371); test: ELISA
T7 construct: range 1-371; cloned range includes the signal peptide; also called hSIRPβ; not shown: human IgG Fc region (hFc) of the pCPC vector
T7 sequence (O00241 30-371 limits assumed, form in doubt): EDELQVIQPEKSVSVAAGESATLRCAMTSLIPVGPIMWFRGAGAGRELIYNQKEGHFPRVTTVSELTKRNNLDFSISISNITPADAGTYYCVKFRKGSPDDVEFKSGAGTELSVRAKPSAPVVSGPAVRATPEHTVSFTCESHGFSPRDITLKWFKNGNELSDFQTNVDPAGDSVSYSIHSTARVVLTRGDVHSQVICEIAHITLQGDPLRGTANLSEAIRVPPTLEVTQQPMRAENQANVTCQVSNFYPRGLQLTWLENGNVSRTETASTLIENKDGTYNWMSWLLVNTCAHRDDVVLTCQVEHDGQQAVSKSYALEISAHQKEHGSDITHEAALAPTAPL

[21] = target: T8, Fc tagged human SIRPγ ECD recombinant protein (human, UniProt Q9P1W8 29-360); test: ELISA
T8 construct: range 1-360; cloned range includes the signal peptide; also called hSIRPγ; not shown: human IgG Fc region (hFc) of the pCPC vector
T8 sequence (Q9P1W8 29-360 limits assumed, form in doubt): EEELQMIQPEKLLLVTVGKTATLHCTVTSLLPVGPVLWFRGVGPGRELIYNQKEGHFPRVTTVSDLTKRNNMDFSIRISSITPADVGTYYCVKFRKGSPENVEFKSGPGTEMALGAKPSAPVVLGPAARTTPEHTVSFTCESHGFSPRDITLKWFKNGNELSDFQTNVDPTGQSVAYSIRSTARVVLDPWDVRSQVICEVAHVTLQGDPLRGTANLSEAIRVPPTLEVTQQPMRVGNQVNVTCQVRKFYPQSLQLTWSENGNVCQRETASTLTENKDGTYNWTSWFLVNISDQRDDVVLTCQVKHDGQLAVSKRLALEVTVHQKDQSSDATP

[22] = target: T9, 6×His tagged human SIRPα v8 ECD recombinant protein (human); test: ELISA
T9 construct: extracellular domain; bought; also called hSIRPα V8

[23] = target: T10, 6×His tagged human SIRPα v1 ECD recombinant protein (human, UniProt P78324 31-373); test: SPR (Biacore)
T10 construct: extracellular domain; bought; also called hSIRPα V1 (SPR antigen)
T10 sequence (P78324 other isoform, or with tags, fused parts or gaps): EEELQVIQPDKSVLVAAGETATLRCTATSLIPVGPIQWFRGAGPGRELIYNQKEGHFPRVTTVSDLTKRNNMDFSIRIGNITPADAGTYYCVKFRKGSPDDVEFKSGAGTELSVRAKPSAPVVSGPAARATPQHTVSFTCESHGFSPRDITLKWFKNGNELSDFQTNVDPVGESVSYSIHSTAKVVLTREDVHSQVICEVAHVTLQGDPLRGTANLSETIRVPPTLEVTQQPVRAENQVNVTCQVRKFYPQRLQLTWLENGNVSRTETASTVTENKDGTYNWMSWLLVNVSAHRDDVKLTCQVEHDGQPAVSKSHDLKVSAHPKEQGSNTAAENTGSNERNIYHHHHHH

[24] = target: T10, 6×His tagged human SIRPα v1 ECD …; test: SPR (Biacore), antibody captured
Protocol: Anti-SIRPα chimeric antibodies were characterized for binding affinity against human SIRPα v1, human SIRPα v2 and C57BL/6 mouse SIRPα using Biacore (GE). Briefly the antibodies to be tested were captured to CM5 chip (GE) using Human Antibody Capture Kit (GE). The antigens of 6×His tagged human SIRPα v1, human SIRPα v2 and C57BL/6 mouse SIRPα ECD recombinant proteins were serially diluted for multiple doses and injected at 30 μl/min for 180 s. Buffer flow was maintained for dissociation of 400 s. 3 M MgCl₂ was used for chip regeneration. The association and dissociation curves were fit with 1:1 binding model, and the Ka/Kd/KD values for each antibody were calculated.

[25] = target: T6, biotin labeled soluble human SIRPα v1 …; test: competitive ELISA, hSIRPα/CD47 blocking
[26] = target: T11, 6×His tagged C57BL/6 mouse SIRPα ECD recombinant protein (mouse (C57BL/6), UniProt P97797 32-373); test: ELISA on coated mouse SIRPα (C57BL/6) ECD [Continued) F]
T11 construct: extracellular domain; bought; also called mSIRPα (C57BL/6); mouse SIRPα (C57BL/6) ECD
T11 sequence: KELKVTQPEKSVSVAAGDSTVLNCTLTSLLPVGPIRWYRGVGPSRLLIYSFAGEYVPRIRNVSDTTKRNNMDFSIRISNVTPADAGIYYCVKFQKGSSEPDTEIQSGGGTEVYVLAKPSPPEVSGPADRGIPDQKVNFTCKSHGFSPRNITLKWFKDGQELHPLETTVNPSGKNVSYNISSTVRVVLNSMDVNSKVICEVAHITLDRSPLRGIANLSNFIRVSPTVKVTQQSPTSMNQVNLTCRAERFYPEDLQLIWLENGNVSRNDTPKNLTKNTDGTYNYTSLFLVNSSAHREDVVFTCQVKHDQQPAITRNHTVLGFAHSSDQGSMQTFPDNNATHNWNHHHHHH

- EC50 [1]: 0.04 nM
- EC50 [2]: 0.04 nM
- EC50 [3]: 1.2 nM
- MFI at 10 nM [4]: 4670 MFI
- binding result [5]: no binding (tested: 100 nM)
- % Competition [6]: -3%
- % Competition [7]: -8%
- % Competition [8]: 2%
- % Competition [9]: -1%
- % Competition [10]: 8%
- % Competition [11]: 7%
- % Competition [12]: 91%
- % Competition [13]: 8%
- % Competition [14]: 3%
- % Competition [15]: -10%
- % Competition [16]: 45%
- % Competition [17]: 14%
B1: Antibody 055 (hybridoma antibody) (antibody, V domains shown)
VH: EVKLVESEGGLVQPGDSMKLSCTASGFTFSDYFMTWIRQVPEKGLEWIANVNYDGRSTYYLDSLKSRFIISRDNANNILYLQMSSLKSEDTATYYCAREGSQTPLYAVDYWGQGTSVTVSS
VL: DIVMTQSQKFMSTTVGDRVNITCKASQNVGTAVAWYQQKPGQSPKLLIYLASNRYTGVPDRFTGSGSGTDFTLTVSDMRSEDLADYFCQQYSIYPFTFGSGTKLEIK
notes: mouse hybridoma antibody

- EC50 [18]: 0.16 nM
- EC50 [19]: 0.16 nM
- EC50 [20]: 0.2 nM
- EC50 [21]: 6.24 nM
- EC50 [22]: 0.23 nM
- Kd [23]: 1.64 nM
- EC50 [3]: 0.97 nM
- EC50 [4]: 0.29 nM
- MFI at 2 ug/ml [5]: 549 MFI
- Kd [24]: 1.64 nM
- koff [24]: 0.00017 s⁻¹
- kon [24]: 104000 M⁻¹ s⁻¹
- IC50 [25]: 1.74 nM
B2: humanized antibody hu035.02 (antibody, V domains shown)
VH: QIQLVQSGSELKKPGASVKVSCRARGYTLTDYAMNWVRQAPGQGLEWMGFINTYTGEPTYAQGFKGRFVFSLDTSVSTAYLQIGSLKAEDTAVYYCARTRGYYDFDGGAFDYWGQGTLVTVSS
VL: DIQMTQSPSSLSASVGDRVTITCRASQNVGTHLAWYQQKPGKAPKSLIYSASYRYIGVPSRFSGSGSGTDFTLTISSLQPEDFATYYCQQYNTYPLTFGQGTKLEIK

- EC50 [18]: 0.13 nM
- EC50 [19]: 0.11 nM
- EC50 [20]: 0.17 nM
- EC50 [21]: 6.78 nM
- EC50 [22]: 0.23 nM
- Kd [23]: 3.2 nM
- EC50 [3]: 1.46 nM
- EC50 [4]: 0.3 nM
- MFI at 2 ug/ml [5]: 626 MFI
- Kd [24]: 3.2 nM
- koff [24]: 0.000189 s⁻¹
- kon [24]: 59200 M⁻¹ s⁻¹
- IC50 [25]: 1.43 nM
- EC50 (read off the curve) [26]: ~0.09 µg/mL
B3: humanized antibody hu035.03 (antibody, V domains shown)
VH: B2 VH
VL: B2 VL with A43S, S46A, Y49F
